# Measurements as given in patent US20200392251A1 (University of California, published 2020).
# Positions count from the first letter of the chain named.
# B1: anti-MMP-14 Fab 2B10 (Fab, V domains shown)
# VH: EVQLVESGGGLVQPGGSLRLSCAASGFNIYYSYMHWVRQAPGKGLEWVASIYPSYGYTYYADSVKGRFTISADTSKNTAYLQMNSLRAEDTAVYYCARQLFACWRQSILTPPLLSAMMMGYAMDYWGQGTLVTVSS
# VL: DIQMTQSPSSLSASVGDRVTITCRASQSVSSAVAWYQQKPGKAPKLLIYSASSLYSGVPSRFSGSRSGTDFTLTISSLQPEDFATYYCQQYSVAYVWLITFGQGTKVEIKR
# notes: Fab from a synthetic human Fab library, produced in E. coli periplasm; also called Clone 2B10
# B2: anti-MMP-14 Fab 2D9 (Fab, V domains shown)
# VH: EVQLVESGGGLVQPGGSLRLSCAASGFNISSSSMHWVRQAPGKGLEWVASIYPYYGYTYYADSVKGRFTISADTSKNTAYLQMNSLRAEDTAVYYCARGVTRFTNDASVGQVWAGAYGMDYWGQGTLVTVSS
# VL: DIQMTQSPSSLSASVGDRVTITCRASQSVSSAVAWYQQKPGKAPKLLIYSASSLYSGVPSRFSGSRSGTDFTLTISSLQPEDFATYYCQQSSYSLITFGQGTKVEIKR
# notes: Fab from a synthetic human Fab library, produced in E. coli periplasm; also called Clone 2D9
# B3: anti-MMP-14 Fab 2A6 (Fab, V domains shown)
# VH: EVQLVESGGGLVQPGGSLRLSCAASGFNFSSSSIHWVRQAPGKGLEWVASISSSYGYTYYADSVKGRFTISADTSKNTAYLQMNSLRAEDTAVYYCARVVRMLPVRCIPRCIKTTLPLYGMDYWGQGTLVTVSS
# VL: DIQMTQSPSSLSASVGDRVTITCRASQSVSSAVAWYQQKPGKAPKLLIYSASSLYSGVPSRFSGSRSGTDFTLTISSLQPEDFATYYCQQSSFPFTFGQGTKVEIKR
# notes: Fab from a synthetic human Fab library, produced in E. coli periplasm; also called Clone 2A6
# B4: anti-Alp2 Fab A4A1 (Fab, V domains shown)
# VH: EVQLVESGGGLVQPGGSLRLSCAASGFNISSYYIHWVRQAPGKGLEWVASIYSYSSYTYYADSVKGRFTISADTSKNTAYLQMNSLRAGDTAVYYCARFGSWSYAIDYWGQGTLVTVSS
# VL: B3 VL with S91A, F93H, P94L, F95I
# notes: Fab from a synthetic human Fab library, produced in E. coli periplasm; also called Clone A4A1
# B5: anti-Alp2 Fab A4A2 (Fab, V domains shown)
# VH: EVQLVESGGGLVQPGGSLRLSCAASGFNLSSSSMHWVRQAPGKGLEWVASIYPSYSYTYYADSVKGRFTISADTSKNTAYLQMNSLRAEDTAVYYCARKTSDQYLLVGGSFFKLRDCCYVMDYWGQGTLVTVSS
# VL: B3 VL with S91A, F93H, P94L, F95I
# notes: Fab from a synthetic human Fab library, produced in E. coli periplasm; also called Clone A4A2
# B6: N-terminal domain of tissue inhibitor of metalloproteinases 2 (nTIMP-2) (other, UniProt P16035 27-153, looked up)
# chain: CSCSPVHPQQAFCNADVVIRAKAVSEKEVDSGNDIYGNPIKRIQYEIKQIKMFKGPEKDIEFIYTAPSSAVCGVSLDVGGKKEYLIAGKAEGDGKMHITLCDFIVPWDTLSTTQKKSLNHRYQMGCE
# notes: domain: N-terminal domain; Periplasmically expressed and purified as reported elsewhere
# How the values were obtained:
# [1] = target: T1, catalytic domain of human MMP-14 (cdMMP-14) (human, UniProt P50281 114-320); experiment: bio-layer interferometry (ForteBio), biotinylated protease on streptavidin biosensor, Fab in solution [panel 2B10]
# T1 construct: range 114-320; Produced active in E. coli periplasm; biotinylated for BLI/ELISA
# Procedure: (§1) Binding kinetics of produced antibodies towards associated protease targets were analyzed by using biolayer interferometry (ForteBio). For Fabs, biotinylated proteases were immobilized on streptavidin biosensors, and Fab binding to the sensors in absence of protease was monitored as backgrounds.
# [2] = target: T1, catalytic domain of human MMP-14 …; experiment: enzyme inhibition assay with FRET peptide substrate (M-2350), Fab titrated on cdMMP-14 [panel 2B10]
# Procedure: (§2) For inhibition tests, 1 μM Fabs were 2-fold serially diluted into protease specific assay buffer and incubated with 1-10 nM proteases for 30 min at room temperature. […] Inhibition percentages at given concentrations were calculated by comparing the initial reaction rates in the presence or absence of inhibitor. […] Vₘₐₓ and Kₘ at various Fab concentrations were measured to determine the inhibition type. FRET inhibition assays were also used for selectivity tests of isolated Fabs with the relevant proteases.
# [3] = target: T1, catalytic domain of human MMP-14 …; experiment: FRET peptide inhibition assay; KI=IC50/(S/Km+1)
# Procedure: as §2
# [4] = target: T1, catalytic domain of human MMP-14 …; experiment: biolayer interferometry; biotinylated protease on streptavidin sensor, Fab in solution
# Procedure: as §1
# [5] = target: T1, catalytic domain of human MMP-14 …; experiment: bio-layer interferometry (ForteBio), biotinylated protease on streptavidin biosensor, Fab in solution [panel 2D9]
# Procedure: as §1
# [6] = target: T1, catalytic domain of human MMP-14 …; experiment: enzyme inhibition assay with FRET peptide substrate (M-2350), Fab titrated on cdMMP-14 [panel 2D9]
# Procedure: as §2
# [7] = target: T1, catalytic domain of human MMP-14 …; experiment: enzyme inhibition assay with FRET peptide substrate (M-2350), Fab titrated on cdMMP-14 [panel 2A6]
# Procedure: as §2
# [8] = target: T1, catalytic domain of human MMP-14 …; experiment: bio-layer interferometry (ForteBio), biotinylated protease on streptavidin biosensor, Fab in solution [panel 2A6]
# Procedure: as §1
# [9] = target: T2, Aspergillus fumigatus autophagic serine protease 2 (Alp2) (Aspergillus fumigatus, UniProt P87184 136-495); experiment: enzyme inhibition assay with FRET peptide substrate, Fab titrated on Alp2 [panel B]
# T2 construct: range 136-495; Produced active in E. coli periplasm; biotinylated for BLI
# T2 sequence: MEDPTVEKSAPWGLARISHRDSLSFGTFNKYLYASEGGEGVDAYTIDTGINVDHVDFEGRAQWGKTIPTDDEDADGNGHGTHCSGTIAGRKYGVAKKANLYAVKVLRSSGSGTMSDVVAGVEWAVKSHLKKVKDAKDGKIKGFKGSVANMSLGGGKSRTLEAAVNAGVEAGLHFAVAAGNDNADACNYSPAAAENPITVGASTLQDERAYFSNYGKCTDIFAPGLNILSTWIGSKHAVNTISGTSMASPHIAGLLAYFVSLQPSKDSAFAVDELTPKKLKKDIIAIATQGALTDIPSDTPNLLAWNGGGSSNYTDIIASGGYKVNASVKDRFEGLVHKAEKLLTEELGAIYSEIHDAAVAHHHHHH
# Procedure: as §2
# [10] = target: T2, Aspergillus fumigatus autophagic serine …; experiment: enzyme inhibition assay with FRET peptide substrate (Mca-[..](Dnp)), Fab titrated on Alp2 [panel A4A2]
# Procedure: as §2
# [11] = target: T3, human MMP-12 catalytic domain mutant D4 (cdMMP-12 D4) (human); experiment: competitive ELISA: nTIMP-2 (0.8-200 µM) premixed with 500 nM Fab LH11 (the competitor displaced), added to immobilised cdMMP-12 D4, bound Fab detected with anti-Fab-HRP (OD450) [panel A, right]
# T3 construct: PROSS-designed expression-optimised mutant; Cytoplasmically expressed in E. coli, purified on Ni-NTA; biotinylated for ELISA/BLI; also called cdMMP-12 mutant D4; modified D4
# T3 sequence (chain, as listed by the source mutant limits assumed): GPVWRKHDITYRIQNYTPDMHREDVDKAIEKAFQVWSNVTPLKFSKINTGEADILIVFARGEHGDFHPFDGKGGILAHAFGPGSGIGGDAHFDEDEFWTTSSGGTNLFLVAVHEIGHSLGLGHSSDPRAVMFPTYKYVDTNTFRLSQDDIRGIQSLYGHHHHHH
# Procedure: (§3) On streptavidin coated ELISA plates, 5 μg/mL biotinylated cdMMPs were immobilized and incubated with two-fold serially diluted purified Fabs. Bound Fabs were detected with anti-Fab-HRP (Sigma-Aldrich), and signals were developed by TMB substrate (Thermo Scientific) and measured using a microplate reader (BioTek). […] Bound Fabs were detected using anti-Fab-HRP.
# [12] = target: T3, human MMP-12 catalytic domain mutant D4 …; experiment: competitive ELISA: nTIMP-2 (0.8-200 µM) premixed with 500 nM Fab LG4 (the competitor displaced), added to immobilised cdMMP-12 D4, bound Fab detected with anti-Fab-HRP (OD450) [panel A, right]
# Procedure: as §3
# [13] = target: T4, human MMP-12 catalytic domain wild type (cdMMP-12 wt) (human, UniProt P39900 106-263); experiment: competitive ELISA: nTIMP-2 (0.8-200 µM) premixed with 500 nM Fab LH6 (the competitor displaced), added to immobilised cdMMP-12 wt, bound Fab detected with anti-Fab-HRP (OD450) [panel B, right]
# T4 construct: biotinylated for ELISA/BLI; also called wt cdMMP-12; cdMMP-12 wide-type
# T4 sequence (P39900 other isoform, or with tags, fused parts or gaps limits assumed): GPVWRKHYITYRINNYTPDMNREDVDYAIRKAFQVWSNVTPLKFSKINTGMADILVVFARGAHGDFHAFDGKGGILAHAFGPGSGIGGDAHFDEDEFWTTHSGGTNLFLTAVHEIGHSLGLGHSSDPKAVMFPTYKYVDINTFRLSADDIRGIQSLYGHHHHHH
# Procedure: as §3
# [14] = target: T4, human MMP-12 catalytic domain wild type …; experiment: competitive ELISA: nTIMP-2 (0.8-200 µM) premixed with 500 nM Fab LH11 (the competitor displaced), added to immobilised cdMMP-12 wt, bound Fab detected with anti-Fab-HRP (OD450) [panel B, right]
# Procedure: as §3
# [15] = target: T4, human MMP-12 catalytic domain wild type …; experiment: BLItz bio-layer interferometry; printed as 'Affinity ... (nM)'
# [16] = target: T4, human MMP-12 catalytic domain wild type …; experiment: competitive ELISA: nTIMP-2 (0.8-200 µM) premixed with 500 nM Fab LG4 (the competitor displaced), added to immobilised cdMMP-12 wt, bound Fab detected with anti-Fab-HRP (OD450) [panel B, right]
# Procedure: as §3
# [17] = target: T3, human MMP-12 catalytic domain mutant D4 …; experiment: competitive ELISA: nTIMP-2 (0.8-200 µM) premixed with 500 nM Fab LH6 (the competitor displaced), added to immobilised cdMMP-12 D4, bound Fab detected with anti-Fab-HRP (OD450) [panel A, right]
# Procedure: as §3
binder,measurement,setting,value
B1,koff,[1],0.0018 s⁻¹
same,kon,[1],40000 M⁻¹ s⁻¹
same,IC50,[2],240 nM
same,Ki,[3],210 nM
same,Kd,[4],46 nM
B2,koff,[5],0.0039 s⁻¹
same,kon,[5],15000 M⁻¹ s⁻¹
same,IC50,[6],260 nM
same,Ki,[3],230 nM
same,Kd,[4],260 nM
B3,IC50,[7],480 nM
same,Ki,[3],430 nM
same,koff,[8],0.003 s⁻¹
same,kon,[8],24000 M⁻¹ s⁻¹
same,Kd,[4],130 nM
B4,IC50,[9],15 nM
B5,IC50,[10],250 nM
B6,EC50,[11],18000 nM
same,EC50,[12],42000 nM
same,EC50,[13],32000 nM
same,EC50,[14],26000 nM
same,Kd,[15],150 nM
same,EC50,[16],44000 nM
same,EC50,[17],23000 nM
